The text below walks through data of the supplement of paper PMC5998384.

In data set [1] the test system is HeLa Kyoto. The data set is described as follows: solubility change mitosis vs G1/S (difference of NP-40 vs SDS log2 ratios) (log2 ratio difference); higher = more soluble in mitosis.
Data set [2] deals with HeLa Kyoto. The data set is described as follows: melting temperature (median over replicates), in situ; higher = more thermally stable.
In data set [3] the test system is HeLa Kyoto. In words: thermal stability score vs G1/S (z-score of summed log2 fold changes over temperatures); higher = more thermally stable than in G1/S.
Data set [4] relates to HeLa Kyoto. In words: solubility in G1/S (NP-40 vs SDS abundance) (log2 ratio); higher = more soluble. The conditions noted are these: cell cycle stage: G1/S.
Where [5] appears, read: cell cycle stage: early G1 (4.5 h after nocodazole release).
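Wherever melting temperature (median over replicates), in situ is given: HeLa Kyoto cells synchronized by double thymidine or nocodazole block, proteins quantified by TMT10plex mass spectrometry, three independent biological replicates.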
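Wherever solubility change mitosis vs G1/S (difference of NP-40 vs SDS log2 ratios) is given: synchronized HeLa Kyoto cells (double thymidine block for G1/S, nocodazole release for mitosis), protein amounts in NP-40 versus SDS lysates quantified by mass spectrometry, three biological replicates.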
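Wherever solubility in G1/S (NP-40 vs SDS abundance) is given: HeLa Kyoto cells arrested at G1/S by double thymidine block, proteins quantified by TMT10plex mass spectrometry in mild NP-40 versus SDS extracts, three biological replicates.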
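Wherever thermal stability score vs G1/S (z-score of summed log2 fold changes over temperatures) is given: synchronized HeLa Kyoto cells, proteins quantified by TMT10plex mass spectrometry, three biological replicates, mitosis taken 0.5 h after nocodazole release, G1/S directly after double thymidine block.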

In the case of “MATKCGNCGPGYSTPLEAMKGPREEIVYLPCIYRNTGTEAPDYLATVDVDPKSPQYCQVIHRLPMPNLKDELHHSGWNTCSSCFGDSTKSRTKLVLPSLISSRIYVVDVGSEPRAPKLHKVIEPKDIHAKCELAFLHTSHCLASGEVMISSLGDVKGNGKGGFVLLDGETFEVKGTWERPGGAAPLGYDFWYQPRHNVMISTEWAAPNVLRDGFNPADVEAGLYGSHLYVWDWQRHEIVQTLSLKDGLIPLEIRFLHNPDAAQGFVGCALSSTIQRFYKNEGGTWSVEKVIQVPPKKVKGWLLPEMPGLITDILLSLDDRFLYFSNWLHGDLRQYDISDPQRPRLTGQLFLGGSIVKGGPVQVLEDEELKSQPEPLVVKGKRVAGGPQMIQLSLDGKRLYITTSLYSAWDKQFYPDLIREGSVMLQVDVDTVKGGLKLNPNFLVDFGKEPLGPALAHELRYPGGDCSSDIWI [SELENBP1]”, the “solubility change mitosis (log2)” value in the data set with HeLa Kyoto [1] is -0.131. Moreover, the melting temperature in the data set with HeLa Kyoto [2] (cell cycle stage: G1/S) turned out to be 59.7 °C; with HeLa Kyoto [2] (cell cycle stage: mitosis), 60.9 °C. Also, the thermal stability score in the data set on HeLa Kyoto [3] (setting [5]) was -0.479; with HeLa Kyoto [3] (cell cycle stage: mitosis) it was -0.737. Further, the “solubility in G1/S (log2)” value in the data set with HeLa Kyoto [4] came to 0.265.

On to “MATKGGTVKAASGFNAMEDAQTLRKAMKGLGTDEDAIISVLAYRNTAQRQEIRTAYKSTIGRDLIDDLKSELSGNFEQVIVGMMTPTVLYDVQELRRAMKGAGTDEGCLIEILASRTPEEIRRISQTYQQQYGRSLEDDIRSDTSFMFQRVLVSLSAGGRDEGNYLDDALVRQDAQDLYEAGEKKWGTDEVKFLTVLCSRNRNHLLHVFDEYKRISQKDIEQSIKSETSGSFEDALLAIVKCMRNKSAYFAEKLYKSMKGLGTDDNTLIRVMVSRAEIDMLDIRAHFKRLYGKSLYSFIKGDTSGDYRKVLLVLCGGDD [ANXA4]”, for which the “solubility change mitosis (log2)” value in the data set with HeLa Kyoto [1] was determined as 0.0251. In addition, the melting temperature came out at 50.1 °C in the data set with HeLa Kyoto [2] (cell cycle stage: G1/S) and 50.2 °C in the data set with HeLa Kyoto [2] (cell cycle stage: mitosis). For the same sequence, the results for the thermal stability score with HeLa Kyoto [3] (setting [5]) and with HeLa Kyoto [3] (cell cycle stage: mitosis) were 5.77 and 4.03, respectively. In addition, in the data set on HeLa Kyoto [4], the “solubility in G1/S (log2)” value is 0.48.

As to “MATLITSTTAATAASGPLVDYLWMLILGFIIAFVLAFSVGANDVANSFGTAVGSGVVTLKQACILASIFETVGSVLLGAKVSETIRKGLIDVEMYNSTQGLLMAGSVSAMFGSAVWQLVASFLKLPISGTHCIVGATIGFSLVAKGQEGVKWSELIKIVMSWFVSPLLSGIMSGILFFLVRAFILHKADPVPNGLRALPVFYACTVGINLFSIMYTGAPLLGFDKLPLWGTILISVGCAVFCALIVWFFVCPRMKRKIEREIKCSPSESPLMEKKNSLKEDHEETKLSVGDIENKHPVSEVGPATVPLQAVVEERTVSFKLGDLEEAPERERLPSVDLKEETSIDSTVNGAVQLPNGNLVQFSQAVSNQINSSGHYQYHTVHKDSGLYKELLHKLHLAKVGDCMGDSGDKPLRRNNSYTSYTMAICGMPLDSFRAKEGEQKGEEMEKLTWPNADSKKRIRMDSYTSYCNAVSDLHSASEIDMSVKAEMGLGDRKGSNGSLEEWYDQDKPEVSLLFQFLQILTACFGSFAHGGNDVSNAIGPLVALYLVYDTGDVSSKVATPIWLLLYGGVGICVGLWVWGRRVIQTMGKDLTPITPSSGFSIELASALTVVIASNIGLPISTTHCKVGSVVSVGWLRSKKAVDWRLFRNIFMAWFVTVPISGVISAAIMAIFRYVILRM [SLC20A1]”, the “solubility change mitosis (log2)” value in the data set on HeLa Kyoto [1] was -0.149. The melting temperature with HeLa Kyoto [2] (cell cycle stage: mitosis) came to 55.9 °C. Further, the thermal stability score was 0.26 in the data set with HeLa Kyoto [3] (setting [5]) and -0.79 with HeLa Kyoto [3] (cell cycle stage: mitosis). The “solubility in G1/S (log2)” value with HeLa Kyoto [4] is -0.24.

As to “MATLLSHPQQRPPFLRQAIKIRRRRVRDLQDPPPQMAPEIQPPSHHFSPEQRALLYEDALYTVLHRLGHPEPNHVTEASELLRYLQEAFHVEPEEHQQTLQRVRELEKPIFCLKATVKQAKGILGKDVSGFSDPYCLLGIEQGVGVPGGSPGSRHRQKAVVRHTIPEEETHRTQVITQTLNPVWDETFILEFEDITNASFHLDMWDLDTVESVRQKLGELTDLHGLRRIFKEARKDKGQDDFLGNVVLRLQDLRCREDQWYPLEPRTETYPDRGQCHLQFQLIHKRRATSASRSQPSYTVHLHLLQQLVSHEVTQHEAGSTSWDGSLSPQAATVLFLHATQKDLSDFHQSMAQWLAYSRLYQSLEFPSSCLLHPITSIEYQWIQGRLKAEQQEELAASFSSLLTYGLSLIRRFRSVFPLSVSDSPARLQSLLRVLVQMCKMKAFGELCPNTAPLPQLVTEALQTGTTEWFHLKQQHHQPMVQGIPEAGKALLGLVQDVIGDLHQCQRTWDKIFHNTLKIHLFSMAFRELQWLVAKRVQDHTTVVGDVVSPEMGESLFQLYISLKELCQLRMSSSERDGVLALDNFHRWFQPAIPSWLQKTYNEALARVQRAVQMDELVPLGELTKHSTSAVDLSTCFAQISHTARQLDWPDPEEAFMITVKFVEDTCRLALVYCSLIKARARELSSGQKDQGQAANMLCVVVNDMEQLRLVIGKLPAQLAWEALEQRVGAVLEQGQLQNTLHAQLQSALAGLGHEIRTGVRTLAEQLEVGIAKHIQKLVGVRESVLPEDAILPLMKFLEVELCYMNTNLVQENFSSLLTLLWTHTLTVLVEAAASQRSSSLASNRLKIALQNLEICFHAEGCGLPPKALHTATFQALQRDLELQAASSRELIRKYFCSRIQQQAETTSEELGAVTVKASYRASEQKLRVELLSASSLLPLDSNGSSDPFVQLTLEPRHEFPELAARETQKHKKDLHPLFDETFEFLVPAEPCRKAGACLLLTVLDYDTLGADDLEGEAFLPLREVPGLSGSEEPGEVPQTRLPLTYPAPNGDPILQLLEGRKGDREAQVFVRLRRHRAKQASQHALRPAP [UNC13D]”, the “solubility change mitosis (log2)” value with HeLa Kyoto [1] is -0.0257. The melting temperature with HeLa Kyoto [2] (cell cycle stage: G1/S) was determined as 51.5 °C; in the data set on HeLa Kyoto [2] (cell cycle stage: mitosis), 51.4 °C. The thermal stability score is -0.00435 in the data set with HeLa Kyoto [3] (setting [5]) and 0.185 in the data set on HeLa Kyoto [3] (cell cycle stage: mitosis). In addition, the “solubility in G1/S (log2)” value in the data set on HeLa Kyoto [4] was -0.0281.

As for “MATNFLAHEKIWFDKFKYDDAERRFYEQMNGPVAGASRQENGASVILRDIARARENIQKSLAGSSGPGASSGTSGDHGELVVRIASLEVENQSLRGVVQELQQAISKLEARLNVLEKSSPGHRATAPQTQHVSPMRQVEPPAKKPATPAEDDEDDDIDLFGSDNEEEDKEAAQLREERLRQYAEKKAKKPALVAKSSILLDVKPWDDETDMAQLEACVRSIQLDGLVWGASKLVPVGYGIRKLQIQCVVEDDKVGTDLLEEEITKFEEHVQSVDIAAFNKI [EEF1D]”, the “solubility change mitosis (log2)” value with HeLa Kyoto [1] worked out at 0.255. Further, the melting temperature with HeLa Kyoto [2] (cell cycle stage: G1/S) and with HeLa Kyoto [2] (cell cycle stage: mitosis) was 50.6 °C each time. The thermal stability score in the data set on HeLa Kyoto [3] (setting [5]) stood at 1.79; in the data set with HeLa Kyoto [3] (cell cycle stage: mitosis) it was 2.76. In addition, the “solubility in G1/S (log2)” value in the data set on HeLa Kyoto [4] was 0.332.

For “MATNWGSLLQDKQQLEELARQAVDRALAEGVLLRTSQEPTSSEVVSYAPFTLFPSLVPSALLEQAYAVQMDFNLLVDAVSQNAAFLEQTLSSTIKQDDFTARLFDIHKQVLKEGIAQTVFLGLNRSDYMFQRSADGSPALKQIEINTISASFGGLASRTPAVHRHVLSVLSKTKEAGKILSNNPSKGLALGIAKAWELYGSPNALVLLIAQEKERNIFDQRAIENELLARNIHVIRRTFEDISEKGSLDQDRRLFVDGQEIAVVYFRDGYMPRQYSLQNWEARLLLERSHAAKCPDIATQLAGTKKVQQELSRPGMLEMLLPGQPEAVARLRATFAGLYSLDVGEEGDQAIAEALAAPSRFVLKPQREGGGNNLYGEEMVQALKQLKDSEERASYILMEKIEPEPFENCLLRPGSPARVVQCISELGIFGVYVRQEKTLVMNKHVGHLLRTKAIEHADGGVAAGVAVLDNPYPV [GSS]”, the “solubility change mitosis (log2)” value with HeLa Kyoto [1] was -0.0933. The melting temperature with HeLa Kyoto [2] (cell cycle stage: G1/S) and in the data set on HeLa Kyoto [2] (cell cycle stage: mitosis) was 58.6 °C each time. In addition, the thermal stability score was -2.26 with HeLa Kyoto [3] (setting [5]) and -1.74 with HeLa Kyoto [3] (cell cycle stage: mitosis). In addition, in the data set with HeLa Kyoto [4], the “solubility in G1/S (log2)” value was 0.238.
